Patent publication EP4417623A1 (Fundació Institut de Recerca Contra la Leucèmia Josep …, dated 2024)
Where no end group is shown, it is not given here.

Tests used:
[1] = molecular target: T1, CCR9 peptide #1 MADDYGSESTSSMEDYVNFNF-C (human, extra C-terminal Cys for BSA conjugation (coated as non-conjugated or BSA-conjugated peptide)); assay: ELISA screening against the immunisation peptide
T1 construct: This is the immunisation peptide; It was conjugated to BSA for the ELISA screenings; also called MADDY peptide; complete antigen peptide
T1 peptide: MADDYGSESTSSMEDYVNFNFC

[2] = molecular target: T2, Peptide 3: SSMEDYVNFN-C (not fully specified; printed as SSMEDYVNFN-C); assay: peptide ELISA titration, OD450
T2 peptide: SSMEDYVNFNC

[3] = molecular target: T3, Peptide 4: SMEDYVNFNF-C (not fully specified; printed as SMEDYVNFNF-C); assay: peptide ELISA titration, OD450
T3 peptide: SMEDYVNFNFC

Measured: binding result

B1: anti-CCR9 antibody clone 115 (antibody, V domains shown)
VH: QVQLKQSGPELVKPGTSVRVSCTASGYSFTDYIIYWVKQSHGRSLEWIGYIDPNNYNTRYSQKFKGKATLTVDKSSTSAFMHLNSLTSDDSAVYYCARDVYWGQGTTLTVSS
VL: DVVMTQTPLSLTVSLGDQASISCRSSQSLVHSNGKTYLQWYLQKPGQSPKLLIYKVSNRFSGVPDRFSGSGSGTDFTLKISRVEAEDLGVYFCAQSTHVWTFGGGTKLEIKR
notes: Murine monoclonal antibody, isotype IgG1; It was tested as hybridoma supernatant in the FACS screening and as Protein A/G purified antibody in the ELISA
binds: all assays above
